Measurements reported in the Human Domainome abundance scans (Beltran et al. 2025).
± gives the uncertainty stated by the source.

Experiment: abundance fitness (aPCA) (normalised: wild type 0, dead -1); higher = more abundant; growth selection in yeast, the domain comes from the species named
Conditions: Saccharomyces cerevisiae (strain ATCC 204508 / S288c)
With “E3 ubiquitin-protein ligase RSP5 P343G, P39940” the abundance fitness was -0.018 ± 0.05.
Work on “E3 ubiquitin-protein ligase RSP5 P343H, P39940” yielded an abundance fitness of 0.09 ± 0.082.
“E3 ubiquitin-protein ligase RSP5 P343I, P39940” gave an abundance fitness of 0.017 ± 0.099.
“E3 ubiquitin-protein ligase RSP5 P343K, P39940” showed an abundance fitness of 0.102 ± 0.07.
With “E3 ubiquitin-protein ligase RSP5 P343L, P39940” the abundance fitness was -0.021 ± 0.048.
Work on “E3 ubiquitin-protein ligase RSP5 P343N, P39940” yielded an abundance fitness of 0.116 ± 0.098.
Substance “E3 ubiquitin-protein ligase RSP5 P343Q, P39940” has an abundance fitness of -0.041 ± 0.059.
With “E3 ubiquitin-protein ligase RSP5 P343S, P39940” the abundance fitness was 0.07 ± 0.056.
Work on “E3 ubiquitin-protein ligase RSP5 P343T, P39940” yielded an abundance fitness of 0.014 ± 0.057.
“E3 ubiquitin-protein ligase RSP5 P343W, P39940” showed an abundance fitness of -0.313 ± 0.054.
Work on “E3 ubiquitin-protein ligase RSP5 P343Y, P39940” yielded an abundance fitness of -0.402 ± 0.35.
“E3 ubiquitin-protein ligase RSP5 P362A, P39940” showed an abundance fitness of -0.747 ± 0.046.
Work on “E3 ubiquitin-protein ligase RSP5 P362D, P39940” yielded an abundance fitness of -0.813 ± 0.097.
With “E3 ubiquitin-protein ligase RSP5 P362E, P39940” the abundance fitness was -0.723 ± 0.076.
Substance “E3 ubiquitin-protein ligase RSP5 P362F, P39940” has an abundance fitness of -1.41 ± 0.47.
“E3 ubiquitin-protein ligase RSP5 P362G, P39940” gave an abundance fitness of -0.852 ± 0.044.
“E3 ubiquitin-protein ligase RSP5 P362H, P39940” gave an abundance fitness of -0.905 ± 0.28.
Work on “E3 ubiquitin-protein ligase RSP5 P362I, P39940” yielded an abundance fitness of -0.791 ± 0.12.
“E3 ubiquitin-protein ligase RSP5 P362K, P39940” showed an abundance fitness of -1.01 ± 0.1.
With “E3 ubiquitin-protein ligase RSP5 P362L, P39940” the abundance fitness was -0.993 ± 0.051.
For “E3 ubiquitin-protein ligase RSP5 P362M, P39940”, the abundance fitness was -1.2 ± 0.35.
With “E3 ubiquitin-protein ligase RSP5 P362Q, P39940” the abundance fitness was -0.709 ± 0.093.
With “E3 ubiquitin-protein ligase RSP5 P362S, P39940” the abundance fitness was -1.09 ± 0.065.
Work on “E3 ubiquitin-protein ligase RSP5 P362T, P39940” yielded an abundance fitness of -0.708 ± 0.067.
Work on “E3 ubiquitin-protein ligase RSP5 P362V, P39940” yielded an abundance fitness of -0.705 ± 0.048.
Work on “E3 ubiquitin-protein ligase RSP5 P362W, P39940” yielded an abundance fitness of -1.21 ± 0.062.
Substance “E3 ubiquitin-protein ligase RSP5 P362Y, P39940” has an abundance fitness of -1.01 ± 0.18.
“E3 ubiquitin-protein ligase RSP5 Q339A, P39940” showed an abundance fitness of -0.143 ± 0.047.
Work on “E3 ubiquitin-protein ligase RSP5 Q339C, P39940” yielded an abundance fitness of -0.092 ± 0.07.
Substance “E3 ubiquitin-protein ligase RSP5 Q339D, P39940” has an abundance fitness of -0.602 ± 0.09.
“E3 ubiquitin-protein ligase RSP5 Q339E, P39940” gave an abundance fitness of 0.006 ± 0.054.
Substance “E3 ubiquitin-protein ligase RSP5 Q339F, P39940” has an abundance fitness of -0.26 ± 0.074.
Substance “E3 ubiquitin-protein ligase RSP5 Q339G, P39940” has an abundance fitness of -0.256 ± 0.044.
“E3 ubiquitin-protein ligase RSP5 Q339H, P39940” showed an abundance fitness of -0.134 ± 0.058.
For “E3 ubiquitin-protein ligase RSP5 Q339I, P39940”, the abundance fitness was -0.073 ± 0.069.
Work on “E3 ubiquitin-protein ligase RSP5 Q339K, P39940” yielded an abundance fitness of 0.026 ± 0.077.
In the case of “E3 ubiquitin-protein ligase RSP5 Q339L, P39940”, the abundance fitness is reported as -0.109 ± 0.051.
Work on “E3 ubiquitin-protein ligase RSP5 Q339M, P39940” yielded an abundance fitness of -0.008 ± 0.069.
“E3 ubiquitin-protein ligase RSP5 Q339P, P39940” showed an abundance fitness of -0.297 ± 0.062.
Work on “E3 ubiquitin-protein ligase RSP5 Q339R, P39940” yielded an abundance fitness of -0.051 ± 0.043.
In the case of “E3 ubiquitin-protein ligase RSP5 Q339S, P39940”, the abundance fitness is reported as -0.138 ± 0.047.
